Consider five molecules from patent publication US20220162649A1, “NOVEL NUCLEIC ACID MODIFIERS” (THE BROAD INSTITUTE, INC., priority 2019, published 2022).

Experiment [1] concerns NHEJ pathway. As to the kind of experiment: HiBiT assay of HDR enhancement by small-molecule NHEJ pathway inhibitors. In kind it is cell-based. On the technique in general: The HiBiT peptide binds its large partner to form an active luciferase.
In experiment [2] the test system is target DNA. Conditions: SaCas9 mutants; cited from earlier work.

On to `O=c1cc(N2CCOCC2)oc2c(-c3cccc4c3sc3ccccc34)cccc12` [KU-57788], for which the “HDR enhancement in the HiBiT assay” value in experiment [1] is on record as “enhanced HDR enhancement”. As for `CCN1CCN(CC(=O)Nc2ccc(-c3cccc4c(=O)cc(N5CCOCC5)oc34)c3sc4ccccc4c23)CC1` [KU-0060648], in experiment [1], the “HDR enhancement in the HiBiT assay” value is “enhanced HDR enhancement”.

B1: D556A: SaCas9 HNH catalytic residue mutant (protein, UniProt J7RUA5 1-1053, looked up, variant D556A)
CRISPR-associated …: MKRNYILGLDIGITSVGYGIIDYETRDVIDAGVRLFKEANVENNEGRRSKRGARRLKRRRRHRIQRVKKLLFDYNLLTDHSELSGINPYEARVKGLSQKLSEEEFSAALLHLAKRRGVHNVNEVEEDTGNELSTKEQISRNSKALEEKYVAELQLERLKKDGEVRGSINRFKTSDYVKEAKQLLKVQKAYHQLDQSFIDTYIDLLETRRTYYEGPGEGSPFGWKDIKEWYEMLMGHCTYFPEELRSVKYAYNADLYNALNDLNNLVITRDENEKLEYYEKFQIIENVFKQKKKPTLKQIAKEILVNEEDIKGYRVTSTGKPEFTNLKVYHDIKDITARKEIIENAELLDQIAKILTIYQSSEDIQEELTNLNSELTQEEIEQISNLKGYTGTHNLSLKAINLILDELWHTNDNQIAIFNRLKLVPKKVDLSQQKEIPTTLVDDFILSPVVKRSFIQSIKVINAIIKKYGLPNDIIIELAREKNSKDAQKMINEMQKRNRQTNERIEEIIRTTGKENAKYLIEKIKLHDMQEGKCLYSLEAIPLEDLLNNPFNYEVAHIIPRSVSFDNSFNNKVLVKQEENSKKGNRTPFQYLSSSDSKISYETFKKHILNLAKGKGRISKTKKEYLLEERDINRFSVQKDFINRNLVDTRYATRGLMNLLRSYFRVNNLDVKVKSINGGFTSFLRRKWKFKKERNKGYKHHAEDALIIANADFIFKEWKKLDKAKKVMENQMFEEKQAESMPEIETEQEYKEIFITPHQIKHIKDFKDYKYSHRVDKKPNRELINDTLYSTRKDDKGNTLIVNNLNGLYDKDNDKLKKLINKSPEKLLMYHHDPQTYQKLKLIMEQYGDEKNPLYKYYEETGNYLTKYSKKDNGPVIKKIKYYGNKLNAHLDITDDYPNSRNKVVKLSLKPYRFDVYLDNGVYKFVTVKNLDVIKKENYYEVNSKCYEEAKKLKKISNQAEFIASFYNNDLIKINGELYRVIGVNNDLLNRIEVNMIDITYREYLENMNDKRPPRIIKTIASKTQSIKKYSTDILGNLYEVKSKKHPQIIKKG
On to B1, for which the “DNA cleavage activity, in words” value in experiment [2] was “almost no DNA cleavage activities”.

B2: H557A: SaCas9 HNH catalytic residue mutant (protein, UniProt J7RUA5 1-1053, looked up, variant H557A)
CRISPR-associated …: MKRNYILGLDIGITSVGYGIIDYETRDVIDAGVRLFKEANVENNEGRRSKRGARRLKRRRRHRIQRVKKLLFDYNLLTDHSELSGINPYEARVKGLSQKLSEEEFSAALLHLAKRRGVHNVNEVEEDTGNELSTKEQISRNSKALEEKYVAELQLERLKKDGEVRGSINRFKTSDYVKEAKQLLKVQKAYHQLDQSFIDTYIDLLETRRTYYEGPGEGSPFGWKDIKEWYEMLMGHCTYFPEELRSVKYAYNADLYNALNDLNNLVITRDENEKLEYYEKFQIIENVFKQKKKPTLKQIAKEILVNEEDIKGYRVTSTGKPEFTNLKVYHDIKDITARKEIIENAELLDQIAKILTIYQSSEDIQEELTNLNSELTQEEIEQISNLKGYTGTHNLSLKAINLILDELWHTNDNQIAIFNRLKLVPKKVDLSQQKEIPTTLVDDFILSPVVKRSFIQSIKVINAIIKKYGLPNDIIIELAREKNSKDAQKMINEMQKRNRQTNERIEEIIRTTGKENAKYLIEKIKLHDMQEGKCLYSLEAIPLEDLLNNPFNYEVDAIIPRSVSFDNSFNNKVLVKQEENSKKGNRTPFQYLSSSDSKISYETFKKHILNLAKGKGRISKTKKEYLLEERDINRFSVQKDFINRNLVDTRYATRGLMNLLRSYFRVNNLDVKVKSINGGFTSFLRRKWKFKKERNKGYKHHAEDALIIANADFIFKEWKKLDKAKKVMENQMFEEKQAESMPEIETEQEYKEIFITPHQIKHIKDFKDYKYSHRVDKKPNRELINDTLYSTRKDDKGNTLIVNNLNGLYDKDNDKLKKLINKSPEKLLMYHHDPQTYQKLKLIMEQYGDEKNPLYKYYEETGNYLTKYSKKDNGPVIKKIKYYGNKLNAHLDITDDYPNSRNKVVKLSLKPYRFDVYLDNGVYKFVTVKNLDVIKKENYYEVNSKCYEEAKKLKKISNQAEFIASFYNNDLIKINGELYRVIGVNNDLLNRIEVNMIDITYREYLENMNDKRPPRIIKTIASKTQSIKKYSTDILGNLYEVKSKKHPQIIKKG
Consider B2, for which the “DNA cleavage activity, in words” value in experiment [2] is listed as “almost no DNA cleavage activities”.

B3: N580A: SaCas9 HNH catalytic residue mutant (protein, UniProt J7RUA5 1-1053, looked up, variant N580A)
CRISPR-associated …: MKRNYILGLDIGITSVGYGIIDYETRDVIDAGVRLFKEANVENNEGRRSKRGARRLKRRRRHRIQRVKKLLFDYNLLTDHSELSGINPYEARVKGLSQKLSEEEFSAALLHLAKRRGVHNVNEVEEDTGNELSTKEQISRNSKALEEKYVAELQLERLKKDGEVRGSINRFKTSDYVKEAKQLLKVQKAYHQLDQSFIDTYIDLLETRRTYYEGPGEGSPFGWKDIKEWYEMLMGHCTYFPEELRSVKYAYNADLYNALNDLNNLVITRDENEKLEYYEKFQIIENVFKQKKKPTLKQIAKEILVNEEDIKGYRVTSTGKPEFTNLKVYHDIKDITARKEIIENAELLDQIAKILTIYQSSEDIQEELTNLNSELTQEEIEQISNLKGYTGTHNLSLKAINLILDELWHTNDNQIAIFNRLKLVPKKVDLSQQKEIPTTLVDDFILSPVVKRSFIQSIKVINAIIKKYGLPNDIIIELAREKNSKDAQKMINEMQKRNRQTNERIEEIIRTTGKENAKYLIEKIKLHDMQEGKCLYSLEAIPLEDLLNNPFNYEVDHIIPRSVSFDNSFNNKVLVKQEEASKKGNRTPFQYLSSSDSKISYETFKKHILNLAKGKGRISKTKKEYLLEERDINRFSVQKDFINRNLVDTRYATRGLMNLLRSYFRVNNLDVKVKSINGGFTSFLRRKWKFKKERNKGYKHHAEDALIIANADFIFKEWKKLDKAKKVMENQMFEEKQAESMPEIETEQEYKEIFITPHQIKHIKDFKDYKYSHRVDKKPNRELINDTLYSTRKDDKGNTLIVNNLNGLYDKDNDKLKKLINKSPEKLLMYHHDPQTYQKLKLIMEQYGDEKNPLYKYYEETGNYLTKYSKKDNGPVIKKIKYYGNKLNAHLDITDDYPNSRNKVVKLSLKPYRFDVYLDNGVYKFVTVKNLDVIKKENYYEVNSKCYEEAKKLKKISNQAEFIASFYNNDLIKINGELYRVIGVNNDLLNRIEVNMIDITYREYLENMNDKRPPRIIKTIASKTQSIKKYSTDILGNLYEVKSKKHPQIIKKG
Consider B3, for which, in experiment [2], the “DNA cleavage activity, in words” value is recorded as “almost no DNA cleavage activities”.
